Target: T1, PAP1 R2R3-MYB domain (UniProt Q9FE25 1-178)
T1 sequence: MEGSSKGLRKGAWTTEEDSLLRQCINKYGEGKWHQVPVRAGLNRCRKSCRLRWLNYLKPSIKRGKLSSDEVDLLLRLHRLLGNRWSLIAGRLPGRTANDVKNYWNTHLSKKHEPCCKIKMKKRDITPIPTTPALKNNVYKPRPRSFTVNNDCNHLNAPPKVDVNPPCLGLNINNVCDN
Assay: EMSA

B1: NtPMT2 MRE-like probe (dsDNA)
DNA 1: CCAACAACCGCGCCAACAACCGCGCCAACAACCGCG
DNA 2: CGCGGTTGTTGGCGCGGTTGTTGGCGCGGTTGTTGG
binding result: no binding

From PMC9039656
